Reference: patent US20210047372A1 (Affibody, published 2021)
Changes are numbered by the printed parent chain. Numbers in names are those of the source.

B1: Y00330 (designed binder)
chain: MGSSHHHHHHGSSLAEAKEAAIAELDSKGVGAKYIKMIQMAKHVETVQYMKQAILASLPA
notes: From library Ylib002Naive.I
B2: Y00356a (designed binder)
chain: B1 chain with M40H, K42H, H43Y, T46V, Y49W, M50L, S57H
notes: From library Ylib002Naive.I; if it is only 46 residues long, an A must be added at the C-terminus
B3: Y00361 (designed binder)
chain: B1 chain with Y34F, M40S, H43L, Y49L, M50L, S57D
notes: From library Ylib002Naive.I
B4: Y00296C (designed binder)
chain: MGSSHHHHHHTIDEWLLAEAKEAAIAELDSKGVGAYQIKFIQLAKSVEHVQLLKQAILADLP
notes: if it is only 46 residues long, TIDEWL must be put before it
B5: Y00296a (designed binder)
chain: MGSSHHHHHHGSSLAEAKEAAIAELDSKGVGAYQIKFIQLAKSVEHVQLLKQAILADLPASYGS
notes: if it is only 46 residues long, ASYGS must be added at the C-terminus
B6: Y00032 (designed binder)
chain: MGSSHHHHHHGSSLAEAKEAAIAELDSKGVGAYQKSFIELAKSVEHVELLKEAILADLPASGSVD
B7: Y00125 (designed binder)
chain: B6 chain with I22N
notes: Differs from Y00032 only in position 9 (N instead of I)
B8: Y00296b (designed binder)
chain: MGSSHHHHHHGSSLAEAKEAAIAELDSKGVGAYQIKFIQLAKSVEHVQLLKQAILADLPGYS
notes: if it is only 46 residues long, GYS must be added
B9: Y00263 (designed binder)
chain: MGSSHHHHHHGSSLAEAKEAAIAELKSKGVGAYQKSFIELAKSVEHVELLKEAILADLP
notes: Y00032 with D13K
B10: Y00264 (designed binder)
chain: B9 chain with K26D, K28Y
notes: Y00032 with K15Y
B11: Y00271 (designed binder)
chain: B9 chain with K26D, E39Q
notes: Y00032 with E26Q
B12: Y00269 (designed binder)
chain: B9 chain with K26D, S36K
notes: Y00032 with S23K
B13: Y00266 (designed binder)
chain: B9 chain with K26D, G31S
notes: Y00032 with G18S
B14: Y00272 (designed binder)
chain: B9 chain with K26D, A41G
notes: Y00032 with A28G
B15: Y00274 (designed binder)
chain: B9 chain with K26D, E48Q
notes: Y00032 with E35Q
B16: Y00265 (designed binder)
chain: B9 chain with K26D, V30I
notes: Y00032 with V17I
B17: Y00276 (designed binder)
chain: B9 chain with K26D, A56K
notes: Y00032 with A43K
B18: Y00268 (designed binder)
chain: B9 chain with K26D, K35I
notes: Y00032 with K22I
B19: Y00275 (designed binder)
chain: B9 chain with K26D, E52Q
notes: Y00032 with E39Q
B20: Y00273 (designed binder)
chain: B9 chain with K26D, E45Q
notes: Y00032 with E32Q
B21: Y00296 (designed binder)
chain: B9 chain with K26D, K35I, S36K, E39Q, E48Q, E52Q
notes: Y00293 with E26Q
B22: Y00267 (designed binder)
chain: B9 chain with K26D, A32E
notes: Y00032 with A19E
B23: Y00299 (designed binder)
chain: MGSSHHHHHHGSSLAEAKEAAIAELDSKGVGAYQIKFIQVAKTVEQVQILKQAILADLPA
notes: From library Ylib002Naive.I
B24: Y00358 (designed binder)
chain: MGSSHHHHHHGSSLAEAKEAAIAELDSKGVGAAKIKWIQDAKSVETVQFLKQAILAELPA
notes: From library Ylib002Naive.I
B25: Y00310 (designed binder)
chain: B23 chain with V40I, K42H, Q46E, I49L, L50M
notes: From library Ylib002Naive.I
B26: Y02717 (designed binder)
chain: B23 chain with K28Y, Q39E, V40I, K42H, Q46E, I49L, L50M
notes: Y00310 with K15Y + Q26E
B27: Y02715 (designed binder)
chain: B24 chain with K28Y, Q39E
notes: Y00358 with K15Y + Q26E
B28: Y02714 (designed binder)
chain: B23 chain with Q39E, V40I, K42H, Q46E, I49L, L50M
notes: Y00310 with Q26E
B29: Y02709 (designed binder)
chain: B24 chain with I22L
notes: Y00358 with I9L
B30: Y02713 (designed binder)
chain: B23 chain with K28Y, V40I, K42H, Q46E, I49L, L50M
notes: Y00310 with K15Y
B31: Y02710 (designed binder)
chain: B24 chain with K28Y
notes: Y00358 with K15Y
B32: Y00304 (designed binder)
chain: B23 chain with K42H, T43D, Q46E
notes: From library Ylib002Naive.I
B33: Y00345 (designed binder)
chain: B23 chain with Q46A, I49A, L50I
notes: From library Ylib002Naive.I
B34: Y02716 (designed binder)
chain: MGSSHHHHHHGSSLAEAKEAAIAELDSYGVGARQIKWIEQAKSVEVVQWLKQAILADLPA
notes: Y00301 with K15Y + Q26E
B35: Y02711 (designed binder)
chain: B24 chain with Q39E
notes: Y00358 with Q26E
B36: Y00035 (designed binder)
chain: MGSSHHHHHHGSSLAEAKEAANAELDSYGVQANSIEAIEQGLFVEVVELLKELILAALPASGSVD
notes: From library Ylib001Naive.I
B37: Y02444 (designed binder)
chain: MGSSHHHHHHGSSLAEAKEAAIAELDSKGVGAVEIKQIQEALLVEIVQLLKQAILAVLPA
notes: From library Ylib002Naive.I; also called Y002444
B38: Y02415 (designed binder)
chain: B37 chain with V33G, E34D, Q37D, E40D
notes: From library Ylib002Naive.I
B39: Y02698 (designed binder)
chain: B37 chain with K28Y
notes: Y02444 with K15Y
B40: Y02465 (designed binder)
chain: B37 chain with V33N, E34H, Q37A, E40H, L42Q, L43F
notes: From library Ylib002Naive.I
B41: Y02700 (designed binder)
chain: B37 chain with I22L, V33G, E34D, Q37D, E40D
notes: Y02415 with I9L
B42: Y02447 (designed binder)
chain: B37 chain with V33H, E34G, Q37E, E40D, L42I, V57A
notes: From library Ylib002Naive.I
B43: Y02374 (designed binder)
chain: B37 chain with V33A, Q37R, E40A, L42E
notes: From library Ylib002Naive.I
B44: Y02495 (designed binder)
chain: B37 chain with V33E, Q37E, E40G, L42M
notes: From library Ylib002Naive.I
B45: Y02699 (designed binder)
chain: B37 chain with Q39E
notes: Y02444 with Q26E
B46: Y02697 (designed binder)
chain: B37 chain with I22L
notes: Y02444 with I9L

molecular target: T1, insulin (UniProt P01308 25-54; P01308 90-110, limits assumed); experiment: SPR, Biacore T200; target immobilized on CM5, His6-tagged Y variant injected; 1:1 Langmuir
T1 construct: Mature insulin has two chains (A and B) from one precursor; also called b-insulin
Description: (§1) Kinetic constants (kₐ and kd) and affinities (KD) were determined for Hiss-tagged Y variants using a Biacore T200 instrument (GE Healthcare). Target proteins C4, IL-6 and insulin, respectively, were immobilized in separate flow cells on the carboxylated dextran layer of different CM5 chip surfaces (GE Healthcare).
(§2) Immobilization was performed using amine coupling chemistry according to the manufacturer's protocol and PBS pH 7.4 supplemented with 0.1 Tween20 (PBST 0.1%) as running buffer. The ligand immobilization levels on the surfaces were 3280-8830 RU for C4, 495-1184 RU for IL-6, and 270-282 RU for insulin. One flow cell surface on each chip was activated and deactivated for use as blank during analyte injections. In the kinetic experiment, PBST 0.1% was used as running buffer at a flow rate of 30 μl/min. The analytes, i.e. Y variants, were each diluted in PBST 0.1 buffer at concentrations of 1000, 500, 100, 50 and 10 nM and injected for 5 min, followed by dissociation in running buffer for 3 min. After dissociation, the surfaces were regenerated with one injection of 30 μl 10 mM HCl. Kinetic constants were calculated from the sensorgrams using the Langmuir 1:1 model of Biacore T200 Evaluation software 2.0 (GE Healthcare).

T1 sequence (P01308 25-54 limits assumed, form in doubt, chain 1 of 2): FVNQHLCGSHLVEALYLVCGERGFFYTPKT
T1 sequence (P01308 90-110 limits assumed, form in doubt, chain 2 of 2): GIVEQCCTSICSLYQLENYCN

| Binder | Kd [nM] | koff [s⁻¹] | kon [M⁻¹ s⁻¹] |
| --- | --- | --- | --- |
| B1 | 120 | 0.0037 | 30000 |
| B2 | 0.17 | 0.0061 | 3.4e+07 |
| B3 | 310 | 0.0036 | 12000 |
| B4 | 51 | – | – |
| B5 | 22 | – | – |
| B6 | 50 | – | – |
| B7 | 110 | – | – |
| B8 | 31 | – | – |
| B9 | 130 | – | – |
| B10 | 64 | – | – |
| B11 | 47 | – | – |
| B12 | 390 | – | – |
| B13 | 56 | – | – |
| B14 | 110 | – | – |
| B15 | 56 | – | – |
| B16 | 120 | – | – |
| B17 | 76 | – | – |
| B18 | 84 | – | – |

| Binder | Kd [nM] | koff [s⁻¹] | kon [M⁻¹ s⁻¹] |
| --- | --- | --- | --- |
| B19 | 59 | – | – |
| B20 | 77 | – | – |
| B21 | 37 | – | – |
| B22 | 59 | – | – |
| B23 | 6.5 | 0.002 | 310000 |
| B24 | 10 | 0.0023 | 220000 |
| B25 | 37 | 0.0063 | 170000 |
| B26 | 610 | 0.02 | 33000 |
| B27 | 280 | 0.0019 | 6700 |
| B28 | 540 | 0.16 | 290000 |
| B29 | 380 | 0.01 | 27000 |
| B30 | 190 | 0.014 | 110000 |
| B31 | 14 | 0.0027 | 190000 |
| B32 | 21 | 0.0011 | 85000 |
| B33 | 61 | 0.017 | 290000 |
| B34 | 7.6 | 0.21 | 2.7e+07 |
| B35 | 54 | 0.008 | 150000 |

molecular target: T2, interleukin 6 (IL-6) (UniProt P05231 30-212); experiment: as above
T2 construct: also called b-IL-6
Description: as §1, §2

| Binder | Kd [nM] | koff [s⁻¹] | kon [M⁻¹ s⁻¹] |
| --- | --- | --- | --- |
| B36 | 360 | – | – |
| B37 | 61 | 0.0055 | 90000 |
| B38 | 160 | 0.0015 | 9700 |
| B39 | 120 | 0.0033 | 28000 |
| B40 | 270 | 0.0021 | 7500 |
| B41 | 62 | 0.0025 | 46000 |
| B42 | 160 | 0.0017 | 11000 |
| B43 | 120 | 0.0017 | 14000 |
| B44 | 240 | 0.0017 | 7100 |
| B45 | 200 | 0.0029 | 19000 |
| B46 | 150 | 0.009 | 50000 |
